# In publication PMC2995167 (The Journal of Cell Biology, 2010):
# B1: NcadEC-Fc (Fc fusion)
# chain: DWVIPPVNVLENSRKQFPEELVKIQSDKDKSNTLRYSVTGPGADQNPTGLFIIDPISGLLSVTKPLDREHIPNFHLRAHAVDINGNQMENPIDIIINVIDMNDNRPEFTHQIWNGTVDEGAKPGTFVMTVTSQDKDDPNTANGMLRYKILSQTPESPSSNMFTINNKTGKIITVAAGLDREKVPQYTLIIQATDMEGNPTYGLSNTATAVIRLLDVNDNAPEFTRETFHGEVPENRVNVIVTNLTVTDKDEPGTPAWNAVYRIISGDPTGRFSIPTDPVTNEGLVTVVKPVDFEMNRSFMLTVVADNEVPLASGIHRTRQSTATVSIRVIDVNESPNFDPNPKQIKLEEGLPQWSMLTTFTAHDPDRYMQQTISYSKLYDPANWLEIDPNNGRISTIAVLDRESPYVKNNLYNATFMASDNGVPRASGTGTLQIYLLDINDNAPRVFPQEAEVCERPEPNAINITAVDGDLNPNAGPYAFELPNRPSDIRRNWTLTRISGDHAQLSLKISYLESGIYELPISITDSGNLPMSNTTYLRIKVCQCDHHGDCVDMERIMAAGLGTGA
# Target: the molecule itself
# Test: bead aggregation assay
protein,measurement,value
B1,binding result,binds
